Data: the DeepSol protein solubility set

Test: soluble on expression in E. coli; label from the status in PepcDB or PDB records

Sequence | soluble on expression in E. coli
MGLGRVITRSLSSVEPALSQKLTIQPAIERSPTDLLNALSETVGPDTTAPHFAYIDDPITIPSTQSTKKTYFMAKEFGKRAARELATEWPTLFAFDRDQPQLPVFRPRHLADPLQVEPTENNLLKMISSREVKDSCILYERMRSENVDVSEKVQLELFRLVTYYNSSNVPFAEWEEFVGMRNFGEDSTSSWKSGAVADLLFETLPKTDETVSIMIAGLCKFSDHSSLERARELYKEHRAAKGKVYREAFNGLIGASSYSVGKKLVAEMISLRMTPDIFTFNALLSSAAKAGKFEDRVKAFTEIIGEMKEIGVEPALSSFHLIIKNIIDFKLLDNEKRESDEQKKTYNHQLTVAISWLNEIQNSLTGKTLKPITSTCNLFFVEAMGIHYRAANENLAENLVSIYESKANEVKMPAFTIESMFYNRQLQLAVEQSASLNRIYDLYTTMVPRLVGVNNYLSSLVFRKLAASSDRHWPLLRRVIIDGIAAGQMNGVIGEEMRKQLCNVQLHTLGTSEREQFTSLVQKLVAVWVEFSQFTEERMRRLQRKLSPSQISECALLLTRIGEQQKAYELLDLLLDETASSGDEATVYPRGHARPWAMAELFEDALRKRDTYAAATCLQIMSLTANRAKLEPLANRIFEKCNVNQEQVRIIQGFIRLRPQ | not soluble
MSLTADTKRPLTLRDVSEASGVSEMTVSRVLRNRGDVSDATRARVLAAAKELGYVPNKIAGALASNRVNLVAVIIPSLSNMVFPEVLTGINQVLEDTELQPVVGVTDYLPEKEEKVLYEMLSWRPSGVIIAGLEHSEAARAMLDAAGIPVVEIMDSDGKPVDAMVGISHRRAGREMAQAILKAGYRRIGFMGTKMPLDYRARKRFEGFTEVLGKNGVEIEDREFYSGGSALAKGREMTQAMLERSPDLDFLYYSNDMIAAGGLLYLLEQGIDIPGQIGLAGFNNVELLQGLPRKLATMDACRLEIGRKAAEIIAKRLEDPEAEIETRITLEPKISYGDTLKREGHHHHHH | soluble
MKKIKKAIIPAAGLGTRFLPATKAMPKEMLPILDKPTIQYIVEEAARAGIEDIIIVTGRHKRAIEDHFDSQKELEMVLKEKGKSELLEKVQYSTELANIFYVRQKEQKGLGHAISSARQFIGNEPFAVLLGDDIVESEVPAVKQLIDVYEETGHSVIGVQEVPEADTHRYGIIDPLTKNGRQYEVKKFVEKPAQGTAPSNLAIMGRYVLTPEIFDYLKTQKEGAGNEIQLTDAIERMNNDNQVYAYDFEGERYDVGEKLGFVKTTIEYALKDDSMREELTRFIKALGL | not soluble
EAMFCDFPKINHGILYDEEKYKPFSQVPTGEVFYYSCEYNFVSPSKSFWTRITCAEEGWSPTPKCLRLCFFPFVENGHSESSGQTHLEGDTVQIICNTGYRLQNNENNISCVERGWSTPPKCRSTISAEKCGPPPPIDNGDITSFLLSVYAPGSSVEYQCQNLYQLEGNNQITCRNGQWSEPPKCLDPCVISQEIMEKYNIKLKWTNQQKLYSRTGDIVEFVCKSGYHPTKSHSFRAMCQNGKLVYPSCEEK | not soluble
AHHHHHHGSISETIRSGDWKGEKHVPVIEYEREGELVKVKVQVGKEIPHPNTTEHHIRYIELYFLPEGENFVYQVGRVEFTAHGESVNGPNTSDVYTEPIAYFVLKTKKKGKLYALSYCNIHGLWENEVTLE | soluble
GSKGNIRVIARVRPVTKEDGEGPEATNAVTFDADDDSIIHLLHKGKPVSFELDKVFSPQASQQDVFQEVQALVTSCIDGFNVCIFAYGQTGAGKTYTMEGTAENPGINQRALQLLFSEVQEKASDWEYTITVSAAEIYNEVLRDLLGKEPQEKLEIRLCPDGSGQLYVPGLTEFQVQSVDDINKVFEFGHTNRTTEFTNLNEHSSRSHALLIVTVRGVDCSTGLRTTGKLNLVDLAGSERVGKSGAEGSRLREAQHINKSLSALGDVIAALRSRQGHVPFRNSKLTYLLQDSLSGDSKTLMVVQVSPVEKNTSETLYSLKFAERVRSVEL | soluble
MSLTNPAPIEAPLPKGVTDFLPEKADKIGYIEGKIRRVFELWGFRRIITPLLEFQDVMAAGLGEDLKERTFRFDDRQTGKLLAIPSDITPQVARIVATRMRGCPLPHRLYYIGRVLRHVELQSGRSRETFQAGVELIGLDSPEADAEMVAMAVEILKGLGFEEFKVDLGHTGFIRGVMAASGLGGDARRRLQEAVGKKDSSAVRAILETEPVADRIKEELAALPRLFGGREVLAEAARVATSDSSRRALDNIAQVLDILDIHGVSDHLTLDLGEIRGLDYHSGLTFEGFVTGIGEAVCSGGRYDNLTQRYGYPAPATGFAFNILALLNALEKRPDVEASKTRDLLIFNLKDDRREALEIAQHLRALGYSTARDIIHRDFNDSLDYARRMNILRMMVIGGDYCAADEAYVVRVADKRGTAVKKADLMRNDFSLNTEGHHHHHH | soluble
MQRIVIVGGGVGGTMLANLLVVRLYPEILGGEVQVLLISDSPDHYYKPAFMYVAFEQFFLEDLKRPQRSLLRPEVMFQLDRVDRFDFPRQELQTRSGRRHGYDYLVIATGCVPAPERIEGLKEAGDHFYQYQPARRLAERLASLESGRVFITVSFPRTPNVPHQCGIAPVETTLMLDDYLRRRGVRERVEIVYTYPTTAQLLRNCLFLQRPTCEILPSLFEQRGIRFQRGFTLARVDPERRIAYSEEGDEQPFDLLMATPPIHAVDAVRECGLPQAAADEGWLPTNHETLQVYGVDRVYTLGDTVDLPVSKAGGACHNQAPVVASNIAAEIRLGKPCAIYDGRVQAVAQMGLNAGMPLWYDYRHDVKPTPPTKLGGLLRQGFNRGLYWAVARGMLLEHHHHHH | soluble
MDCNGSGGSSDDDKPLHHDGGVRMKFFRSVGEVFGYSPFRSLAQHARMCGRAVGLLQQQFEALRRGNYEEVEELREEIDELEHHADQIKEEIRGNVTKSLMLPVDRHDLLEFLKVQDDILNNCEHVGHMVTFRKVSAPEDVWDEFLVLLSKLMEIVNNYEEMVERIMQLVETSFSKKEVNRALEYVPIIEQLEHECDLIQIGLHTKLFNLENSNPLDIQLMVTWVVHLGYVANAAARASDRFRIMILGR | soluble
MAHHHHHHMYTRLTELFFISHTFRGRMSSTFCLQPSMMRPLLEQQRRFTSIISRFSSTVTSHVSSLADTHFMPLSEQCITEPRRPYPRRVSMQENLAERLTLQRSLRAHLVPLQVIVSKEKLYIELVWPSAALRAVENQKETMAHTVKGAAADGDDDGNDAALHHAMESPARTVSSGLSQRRPLEEHRTRFLAEFLRAYSPSTDVIGSDVLIYGRRGITITDVIPVGNYALRIVFSDGHSGGIYPYEYLFHLGCEKYSRMREYIRRLRAKHKSRDPPKRAPSQRLSRSRSAQRAEGRHMNSHGQDDQ | not soluble
MAHHHHHHMVFNQDHHEKECADAFVLARDGMSDFEGEKIERAFRGVTAALRFLDYQETTGTSTRSPTGSNSNAEQRSSGSHEPLVSGEDTNYHHVVCLVRSLDGEKENTPVN | not soluble
MSEEKYNYLDMHLSRKGSIYDSLIHLKPDNENKFGLDENSDICRTLSNYADYSTKKVKYFVNKRFSEIENIEKNIEDIDYSAFKYFRTLPPKYSDENDIRNNIIFNNNNIYIYAENKNGTLNEQACISISPDNNIIYCSTKGRRYTIGGHAGIQKNLNNEYNFLDENNFISPQNSIKTYTYDALDSSDLSSSFPKMNLIKTNDVLDDTNTNRINTANIFNEHIIMNSCESSNLNTTKCLSKNLSVQKLFKYYKKCSQDLEHEQRICKPCAHVYNGSTCMNGDECSFCHHPDHVLISAKKWKKLVKNNMEKLNILLHILRNPDDVNANFLNEMIKQNTKNFKKNKKINNIKNNTIINMYNQNIRHSNSNNNTINDMNNNNINKRHNKNRIFYFPQRNTDNILRPPYNNYESNETTDMYKNNYQVRNCNFSPYHMNM | not soluble
MTVSLLDSSTRYHAVTALNGNVLFSGARRPMPTVMLLHTPPPEFIRSQIQQMVVDYVTDISMVAIAPGNPLYNLYQYGVGYEVHLYLNAMNGSQSLTVELIVALDDEDPETVLGFLLYLPVQDDPQACAVAYMAVLESHRCQGIARLMLDRMVSRYAHAELYCTVAKVPYFQAMGFQVLGARGPQVIMNTRDHGTDGLLAVMDIAPIYSSVEVRQIHAYLLKQHGNTAMLDAEKQRDHHLDRMTREARAFAEQHLENGDSVHGVSATVRLH | not soluble
GPGSMPQPSALQSARSFLGTVAEDSVRCDRGLDSVPHNEAGLRCLAADGNWSAVAELAERLSAAATEETAEGLSRRLQFILVQVTANFHMQRYNVAKKLVESLGDLNSERYIDPKTSESTVPFSLRFISAIIPLYIGTKMDSQQRLYALLRDCRENLGKYASAVWVARIKRVQRALVVSHYQVEQYSEALRIYNELIAVEGNADGDDMGSYALLRRMLHLHQFAALALFCGNASFANSIYQSIASINVSEAAPCVQNFHECLVDFNTGIWLSFNGKVQDSMKVFCDVATKSREYYCALGASQLMSTDVPTVSNRQLKFVADGCDALALSELCRHAFHQLLVNATTSHVVTMPYEALRGKAPATMLGGTIRTMEDYLRNDPAGLLSSDAFISNGVRLYTLEGGTQMRRLELLNDLIEVFRCDRASAPPIDKIV | not soluble
DGTLVVDIDGCISHANPAAETLLAGPEESLVGQQVEAVIPTWDSLTVDDEQADWSELALSVDGQQRFVELEVTPFADRF | not soluble
MDINQNYREAVKTIKEAILRSQYRAATSVNKEQLSLYYGIGRYVSKNSRIGFWGKGAIEQISSLLQKELPGLRGFSTSNIKNMRVFYEEWEPVLNRQPLAGDLVLDEKLLLSVIRQPLADEFNWSDFFSIGFSHHTEIISKAKTLEARLFYIHECAIRYWSKYTLRDYLKADLYSHRGTLPNNFAQTLPDTKQALKAVCSFKDEYLLDFINVEELDEQEEDLDEKIVEKSIVANVKKFIMTFGQDFSFIGNQYRVEVAGEEMFIDLLFFNRELNSLVAVELKSGKFRSSYLGQLNTYLSALDSYVRKPHENPSIGIILCREMNQTFVEFAVRDYNKPMGVATYRTSKDMPERLRNALPDIEELRKLL | not soluble
MTEYKLVVVGDGGVGKSALTIQLIQNHFVEEYDPTIEDSYRKQVVIDGETCLLDILDTAGQEEYSAMRDQYMRTGEGFLLVFAVNEAKSFENVANYREQIRRVKDSDDVPMVLVGNKCDLSSRSVDFRTVSETAKGYGIPNVDTSAKTRMGVDEAFYTLVREIRKHRERHDNNKPQKKKKCQIM | not soluble
VGKEKMPVELYHAGEEITQLVREFATDKMKKAVQTFEKLERMENMDRVKEETLAHFEETLEDFEDFVGDIEEVLQDIIKEEVRKLIVHENVRPDNRKLEEIRP | not soluble
MGSDKIHHHHHHMKFKQDYFDQLSGFYSQVTPQGLPRPQWLAWSEDAAALIGLKQPDDELLQGLAGNQAIPGASYYAQVYSGHQFGGYSPQLGDGRSIILGEAEGPQGYWDVALKGAGMTPYSRHGDGRAVMRSAVREFLVSEALHHLNIPTTRALAVIGSDLPVWRETQETAAITVRLAKSHIRFGHFEFFCHSEQGSKDKLKQLLDFTLSQHYPELSRDQAGYIAWFNRVVADTAKLIAHWQAVGFAHGVMNTDNMSILGDSFDFGPFAFLDTFEEDFICNHSDPNGRYAFGQQPGVGLWNLQRLAQALVPIIASDDLIAALNTYQHHLVQAYLVLMRDKLGIKLVEPAGSERDEADLQLIGGFTLLMEANRLDHTNTWRRFAQLDPNSQHSSLRDDFIDLAGFDTWYQAYQERLGQVSDVAGWQAVRAQVNPKYVLRNYLAQEAIIACEEGNTQPLAELHQLLTRPFDEQPEKEAYAKRPPEWGQGLIMSCSS | not soluble
